Laboratory results: article PMC5498027
Numbering of substitutions follows the chain as printed. In names and notes the source's numbering stands. Values belong to the binder of their own block, whether it stands above or below them.

Tests used:
[1] = target: T1, taxol-stabilized microtubules polymerized from bovine brain tubulin, Q6B856; experiment: MT pelleting assay (western blot densitometry); settings: chain shown with the change, 5 mM AMPPNP, read off a plot
[2] = target: T1, taxol-stabilized microtubules …; experiment: MT pelleting assay (western blot densitometry), fitted curve; settings: chain shown with the change; 5 mM AMPPNP; fitted curve read at 8 µM tubulin; parent: est. 0.95; read off a plot

T1 sequence (chain, as listed by the source, chain 1 of 2): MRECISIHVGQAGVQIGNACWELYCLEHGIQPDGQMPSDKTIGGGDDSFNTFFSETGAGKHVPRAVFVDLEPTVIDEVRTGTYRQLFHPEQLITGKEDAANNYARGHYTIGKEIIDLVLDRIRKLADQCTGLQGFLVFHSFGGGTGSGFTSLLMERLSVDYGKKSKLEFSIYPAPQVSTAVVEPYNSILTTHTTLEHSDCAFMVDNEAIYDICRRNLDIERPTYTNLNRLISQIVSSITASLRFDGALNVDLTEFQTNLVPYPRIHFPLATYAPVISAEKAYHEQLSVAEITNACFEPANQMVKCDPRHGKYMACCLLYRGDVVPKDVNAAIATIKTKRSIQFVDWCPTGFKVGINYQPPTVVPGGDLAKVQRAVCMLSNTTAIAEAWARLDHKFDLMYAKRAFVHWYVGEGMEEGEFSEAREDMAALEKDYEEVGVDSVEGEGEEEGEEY
T1 sequence (Q6B856 whole entry, chain 2 of 2): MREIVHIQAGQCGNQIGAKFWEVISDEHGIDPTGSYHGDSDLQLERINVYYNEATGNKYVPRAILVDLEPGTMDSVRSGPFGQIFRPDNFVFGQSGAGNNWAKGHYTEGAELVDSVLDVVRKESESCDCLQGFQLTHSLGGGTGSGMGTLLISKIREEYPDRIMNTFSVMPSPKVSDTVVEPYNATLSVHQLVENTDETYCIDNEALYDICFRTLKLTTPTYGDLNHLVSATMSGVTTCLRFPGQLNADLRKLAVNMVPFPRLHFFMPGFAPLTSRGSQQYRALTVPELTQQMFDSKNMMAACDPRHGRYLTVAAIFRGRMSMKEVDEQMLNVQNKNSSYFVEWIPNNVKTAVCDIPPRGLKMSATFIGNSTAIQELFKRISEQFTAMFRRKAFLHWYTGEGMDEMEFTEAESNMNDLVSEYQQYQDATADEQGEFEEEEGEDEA

B2: human Kif5A, first 560 amino acids, wild type, fused to EGFP and a C-terminal 6xHIS tag, Q12840 M198T (protein)
chain: MAETNNECSIKVLCRFRPLNQAEILRGDKFIPIFQGDDSVVIGGKPYVFDRVFPPNTTQEQVYHACAMQIVKDVLAGYNGTIFAYGQTSSGKTHTMEGKLHDPQLMGIIPRIARDIFNHIYSMDENLEFHIKVSYFEIYLDKIRDLLDVTKTNLSVHEDKNRVPFVKGCTERFVSSPEEILDVIDEGKSNRHVAVTNTNEHSSRSHSIFLINIKQENMETEQKLSGKLYLVDLAGSEKVSKTGAEGAVLDEAKNINKSLSALGNVISALAEGTKSYVPYRDSKMTRILQDSLGGNCRTTMFICCSPSSYNDAETKSTLMFGQRAKTIKNTASVNLELTAEQWKKKYEKEKEKTKAQKETIAKLEAELSRWRNGENVPETERLAGEEAALGAELCEETPVNDNSSIVVRIAPEERQKYEEEIRRLYKQLDDKDDEINQQSQLIEKLKQQMLDQEELLVSTRGDNEKVQRELSHLQSENDAAKDEVKEVLQALEELAVNYDQKSQEVEEKSQQNQLLVDELSQKVATMLSLESELQRLQEVSGHQRKRIAEVLNGLMKDLSE
- response (fraction Kif5A bound) ([1]; 2 µM tubulin): 0.94
- response (fraction Kif5A bound) ([1]; 4 µM tubulin): 0.95
- response (fraction Kif5A bound) ([1]; 8 µM tubulin): 0.94
- response (fraction Kif5A bound) [2]: 1

B4: human Kif5A, first 560 amino acids, wild type, fused to EGFP and a C-terminal 6xHIS tag, Q12840 R204Q (protein)
chain: B2 chain with T198M, R204Q
- response (fraction Kif5A bound) ([1]; 2 µM tubulin): 0.8
- response (fraction Kif5A bound) ([1]; 4 µM tubulin): 0.73
- response (fraction Kif5A bound) ([1]; 8 µM tubulin): 0.76
- response (fraction Kif5A bound) [2]: 0.79

B5: human Kif5A, first 560 amino acids, wild type, fused to EGFP and a C-terminal 6xHIS tag, Q12840 E251K (protein)
chain: B2 chain with T198M, E251K
- response (fraction Kif5A bound) ([1]; 2 µM tubulin): 0.56
- response (fraction Kif5A bound) ([1]; 4 µM tubulin): 0.63
- response (fraction Kif5A bound) ([1]; 8 µM tubulin): 0.73
- response (fraction Kif5A bound) [2]: 0.74

Results, then the binder that gave them:

- response (fraction Kif5A bound) ([1]; 2 µM tubulin): 0.7
- response (fraction Kif5A bound) ([1]; 4 µM tubulin): 0.83
- response (fraction Kif5A bound) ([1]; 8 µM tubulin): 0.8
- response (fraction Kif5A bound) [2]: 0.86
B1: human Kif5A, first 560 amino acids, wild type, fused to EGFP and a C-terminal 6xHIS tag, Q12840 S203C (protein)
chain: B2 chain with T198M, S203C

- response (fraction Kif5A bound) ([1]; 2 µM tubulin): 0.9
- response (fraction Kif5A bound) ([1]; 4 µM tubulin): 0.91
- response (fraction Kif5A bound) ([1]; 8 µM tubulin): 0.95
- response (fraction Kif5A bound) [2]: 1
B3: human Kif5A, first 560 amino acids, wild type, fused to EGFP and a C-terminal 6xHIS tag, Q12840 S202N (protein)
chain: B2 chain with T198M, S202N

- response (fraction Kif5A bound) ([1]; 2 µM tubulin): 0.44
- response (fraction Kif5A bound) ([1]; 4 µM tubulin): 0.41
- response (fraction Kif5A bound) ([1]; 8 µM tubulin): 0.36
- response (fraction Kif5A bound) [2]: 0.47
B6: human Kif5A, first 560 amino acids, wild type, fused to EGFP and a C-terminal 6xHIS tag, Q12840 R204W (protein)
chain: B2 chain with T198M, R204W
